According to publication PMC3229523, “Identification of Lactoferricin B Intracellular Targets Using an Escherichia coli Proteome Chip” (PLoS ONE, 2011):
Ends that are not written are not given here. * marks the point of attachment. Biotin = O=C1N[C@H]2[C@H](CS[C@H]2CCCCC(=O)*)N1

How the values were obtained:
Test in all cases: peptide or protein array; E. coli proteome chip: purified His-tagged proteins printed in duplicate on Fullmoon slides, blocked with 1% BSA; 10 nM N-terminal biotinylated LfcinB with 1% BSA, room temperature, 1 h; detected with DyLight 649-labeled streptavidin, ratio to DyLight 549-labeled anti-His antibody; ProCAT normalisation, local cut-off; triplicate chips
Details in all cases: both partners purified
[1] = target: T1, PaaG (E. coli K-12, UniProt P77467 1-262)
T1 construct: PaaG, E. coli K-12
T1 sequence (looked up): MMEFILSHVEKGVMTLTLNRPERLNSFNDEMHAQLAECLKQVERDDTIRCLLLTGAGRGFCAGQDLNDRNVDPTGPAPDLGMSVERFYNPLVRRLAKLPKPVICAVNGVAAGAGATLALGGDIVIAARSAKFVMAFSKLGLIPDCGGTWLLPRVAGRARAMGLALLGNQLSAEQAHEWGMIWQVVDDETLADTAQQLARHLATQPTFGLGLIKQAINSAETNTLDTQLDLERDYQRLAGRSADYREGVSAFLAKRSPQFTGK

[2] = target: T2, WcaL (E. coli K-12, UniProt P71243 1-406)
T2 construct: WcaL, E. coli K-12
T2 sequence (looked up): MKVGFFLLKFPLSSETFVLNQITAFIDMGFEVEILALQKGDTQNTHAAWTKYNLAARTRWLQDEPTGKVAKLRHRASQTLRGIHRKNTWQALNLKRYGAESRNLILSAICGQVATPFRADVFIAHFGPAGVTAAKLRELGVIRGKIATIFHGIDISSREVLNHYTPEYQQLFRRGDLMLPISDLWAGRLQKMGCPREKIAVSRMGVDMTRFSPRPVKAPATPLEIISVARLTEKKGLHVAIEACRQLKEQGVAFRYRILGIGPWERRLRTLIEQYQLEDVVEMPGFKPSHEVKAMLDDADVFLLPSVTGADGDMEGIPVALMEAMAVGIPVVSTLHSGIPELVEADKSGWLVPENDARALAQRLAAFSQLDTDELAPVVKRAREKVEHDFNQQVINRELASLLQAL

[3] = target: T3, YtfI (E. coli K-12, UniProt P39317 1-312)
T3 construct: YtfI, E. coli K-12
T3 sequence (looked up): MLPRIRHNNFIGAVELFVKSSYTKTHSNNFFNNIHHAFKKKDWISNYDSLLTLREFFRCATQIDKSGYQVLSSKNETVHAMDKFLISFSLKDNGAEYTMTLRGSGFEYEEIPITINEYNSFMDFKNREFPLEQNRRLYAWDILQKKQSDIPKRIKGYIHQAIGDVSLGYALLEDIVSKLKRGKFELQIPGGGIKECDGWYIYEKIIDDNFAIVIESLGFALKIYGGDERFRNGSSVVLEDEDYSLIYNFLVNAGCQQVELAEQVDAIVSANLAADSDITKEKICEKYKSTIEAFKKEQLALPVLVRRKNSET

[4] = target: T4, YhdG (E. coli K-12, UniProt P0ABT5 1-321)
T4 construct: YhdG, E. coli K-12
T4 sequence (looked up): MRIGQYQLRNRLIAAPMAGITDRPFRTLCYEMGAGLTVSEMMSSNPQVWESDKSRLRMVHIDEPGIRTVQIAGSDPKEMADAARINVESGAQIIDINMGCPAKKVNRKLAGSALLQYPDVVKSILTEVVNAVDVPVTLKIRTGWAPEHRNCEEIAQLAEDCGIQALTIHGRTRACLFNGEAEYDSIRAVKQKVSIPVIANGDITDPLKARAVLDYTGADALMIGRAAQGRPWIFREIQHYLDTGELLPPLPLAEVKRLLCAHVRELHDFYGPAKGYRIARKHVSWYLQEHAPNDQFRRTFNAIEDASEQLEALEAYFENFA

[5] = target: T5, YibA (E. coli K-12, UniProt P0ADK6 1-280)
T5 construct: YibA, E. coli K-12
T5 sequence (looked up): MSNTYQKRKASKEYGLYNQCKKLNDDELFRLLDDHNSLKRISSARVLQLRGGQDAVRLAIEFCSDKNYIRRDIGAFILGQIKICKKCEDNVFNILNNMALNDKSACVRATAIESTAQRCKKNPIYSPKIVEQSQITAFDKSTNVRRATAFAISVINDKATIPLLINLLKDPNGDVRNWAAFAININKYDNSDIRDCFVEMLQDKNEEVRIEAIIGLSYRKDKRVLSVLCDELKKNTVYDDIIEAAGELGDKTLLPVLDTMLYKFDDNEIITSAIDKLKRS

[6] = target: T6, HemK (E. coli K-12, UniProt P0ACC1 1-277)
T6 construct: HemK, E. coli K-12
T6 sequence (looked up): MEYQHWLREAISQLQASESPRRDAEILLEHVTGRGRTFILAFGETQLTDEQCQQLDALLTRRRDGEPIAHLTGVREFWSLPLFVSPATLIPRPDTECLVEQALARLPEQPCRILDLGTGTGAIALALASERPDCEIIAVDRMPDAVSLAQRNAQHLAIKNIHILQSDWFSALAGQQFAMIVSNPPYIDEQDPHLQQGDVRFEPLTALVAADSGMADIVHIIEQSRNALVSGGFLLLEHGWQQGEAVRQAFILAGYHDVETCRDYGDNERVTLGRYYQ

Measured: binding result

B1: N-terminal biotinylated Lactoferricin B (peptide, UniProt P24627 36-60, looked up)
peptide: Biotin-FKCRRWQWRMKKLGAPSITCVRRAF
modifications: ends and bridges not checked
notes: lactoferricin B (LfcinB), cationic antimicrobial peptide of 25 amino acids; also called biotinylated LfcinB; biotin-labeled LfcinB; source: bought: Kelowna Inc
binds: all assays above
